Reference: article PMC2888147

Molecular target: His-tagged KCNE1 C-terminus (E1C) (human) (UniProt P15382)
Assay: SEC

stoichiometry N: 2
Substance: His-tagged KCNE1 C-terminus (E1C) (from UniProt P15382 67-129) (domain or fragment)
